Among the data in patent US20130251724A1 (GlaxoSmithKline, published 2013) are Kd, koff and kon values, retold here.

Assay [1] addresses T1, Human OSM (human, UniProt P13725 26-221).
T1 construct: Recombinant human OSM; also called hOSM; human Oncostatin M
T1 sequence: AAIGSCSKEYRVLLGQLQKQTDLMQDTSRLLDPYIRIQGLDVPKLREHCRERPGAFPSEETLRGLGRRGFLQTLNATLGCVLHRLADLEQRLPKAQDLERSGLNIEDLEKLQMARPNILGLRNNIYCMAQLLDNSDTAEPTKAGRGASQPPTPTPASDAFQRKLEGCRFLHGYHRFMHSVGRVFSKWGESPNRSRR
Nature of the assay: SPR (ProteOn XPR36 or Biacore T100), captured supernatant, OSM as analyte. As to the method:
The initial kinetic analyses for the CDRH3 screen were carried out on the ProteOn XPR36 (Biorad Laboratories) and certain supernatants were selected for more accurate kinetic analysis on the BiaCore T100.
For the ProteOn analysis, anti-human IgG (GE Healthcare/Biacore BR-1008-39) was coupled to a GLM chip (Biorad Laboratories 176-5012) by primary amine coupling. The CDRH3 variants were captured directly on to this surface and recombinant human OSM was passed over the captured antibody surface at 256, 64, 16, 4 and 1 nM, with a buffer injection alone (i.e. 0 nM) used to double reference the binding curves. Following the OSM binding event, the capture surfaces were regenerated: with 3M MgCl₂ the regeneration removed the previously captured antibody ready for another cycle of capture and binding analysis. The data was then fitted to the 1:1 model (with mass transport) inherent to the ProteOn analysis software. The run was carried out using HBS-EP (Biacore/GE-Healthcare BR-1006-69) and the analysis temperature was 25° C.
A similar method was used for analysis of constructs using the Biacore T100, anti-human IgG (GE Healthcare/Biacore BR-1008-39) was coupled to a CM5 chip (GE Healthcare/Biacore BR-1006-68) by primary amine coupling, antibodies were captured on this surface and recombinant human OSM was passed over the captured antibody surface at 256, 64, 16, 4 and 1 nM, with a buffer injection alone (i.e. 0 nM) used to double reference the binding curves. Regeneration was by using pulses of 3M 3M MgCl₂ or 100 mM phosphoric acid or using both reagents. The data was fitted to the 1:1 model inherent to the Biacore T100 analysis software. The run was carried out using HBS-EP (Biacore/GE-Healthcare BR-1006-69) and the analysis temperature was 25° C.
A general note: In SPR one partner is held on a chip, and binding of the other changes the refractive index at the surface.

Assay [2] concerns the target T1, Human OSM. Briefly: BIAcore kinetics, transfection supernatant.
The target in assay [3] is T2, Cynomolgus OSM (cynomolgus, UniProt A0A2K5VPC6 26-221).
T2 construct: also called Cyno OSM; cynomolgus macaque OSM
T2 sequence: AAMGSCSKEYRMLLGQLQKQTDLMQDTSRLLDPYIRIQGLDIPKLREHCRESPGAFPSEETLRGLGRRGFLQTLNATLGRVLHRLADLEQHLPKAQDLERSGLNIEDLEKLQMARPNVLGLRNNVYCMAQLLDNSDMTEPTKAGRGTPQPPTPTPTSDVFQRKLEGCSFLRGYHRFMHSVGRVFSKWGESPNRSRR
Nature of the assay: BIAcore kinetics, transfection supernatant.

B1: Pos 100D Ala (antibody, V domains shown)
VH: EVQLVESGGGLVQPGGSLRLSCAASGFTFSSYAMSWVRQAPGKGLEWVATISDGGSFTYYLDNVRGRFTISRDNAKNSLYLQMNSLRAEDTAVYYCARDVGHTTFWYADVWGRGTLVTVSS
VL: DIVMTQSPDSLAVSLGERATINCRASKSVSAAGYNFMHWYQQKPGQPPKVLIYYASNLESGVPDRFSGSGSGTDFTLTISSLQAEDVAVYYCLHSREFPFTFGGGTKVEIKR
notes: also called CDRH3 F100D>A
As a reminder, the Kd is the free concentration of one partner at which half of the binding sites on the other are occupied at equilibrium, for simple one-to-one binding. Low readings indicate higher affinity, high ones lower affinity. As to B1, the Kd in assay [1] stood at 0.869 nM.

B2: Pos 102 Gly (antibody, V domains shown)
VH: EVQLVESGGGLVQPGGSLRLSCAASGFTFSSYAMSWVRQAPGKGLEWVATISDGGSFTYYLDNVRGRFTISRDNAKNSLYLQMNSLRAEDTAVYYCARDVGHTTFWYFDGWGRGTLVTVSS
VL: DIVMTQSPDSLAVSLGERATINCRASKSVSAAGYNFMHWYQQKPGQPPKVLIYYASNLESGVPDRFSGSGSGTDFTLTISSLQAEDVAVYYCLHSREFPFTFGGGTKVEIKR
notes: also called CDRH3 V102>G
Consider B2, for which binding in assay [1] was put at a Kd of 0.406 nM.

B3: Humanised 10G8 H0 IGHV3_7 + L1 IGKV4_1 (antibody, V domains shown)
VH: EVQLVESGGGLVQPGGSLRLSCAASGFTFSSYWMSWVRQAPGKGLEWVATISDGGSFTYYLDNVRGRFTISRDNAKNSLYLQMNSLRAEDTAVYYCARDVGHTTFWYFDVWGRGTLVTVSS
VL: DIVMTQSPDSLAVSLGERATINCRASKSVSAAGYNFMHWYQQKPGQPPKVLIYWASTRESGVPDRFSGSGSGTDFTLTISSLQAEDVAVYYCLHSREFPFTFGGGTKVEIK
notes: built from the stated CDR exchanges; residue limits derived by me
Broadly, the koff is the first-order rate constant of dissociation. A higher koff goes with fast dissociation. A word on the kon: it is the rate constant with which the complex forms. Read a high kon as faster complex formation. On to B3, for which, in assay [2], the Kd amounted to 44.4 nM, the koff worked out at 0.00163 s⁻¹ and the kon worked out at 36800 M⁻¹ s⁻¹. Besides, in assay [3], binding was characterised by a dissociation constant (Kd) of 34.9 nM, the koff stood at 0.00177 s⁻¹ and the kon stood at 50700 M⁻¹ s⁻¹.

B4: Pos 100D Glu (antibody, V domains shown)
VH: EVQLVESGGGLVQPGGSLRLSCAASGFTFSSYAMSWVRQAPGKGLEWVATISDGGSFTYYLDNVRGRFTISRDNAKNSLYLQMNSLRAEDTAVYYCARDVGHTTFWYEDVWGRGTLVTVSS
VL: DIVMTQSPDSLAVSLGERATINCRASKSVSAAGYNFMHWYQQKPGQPPKVLIYYASNLESGVPDRFSGSGSGTDFTLTISSLQAEDVAVYYCLHSREFPFTFGGGTKVEIKR
notes: also called CDRH3 F100D>E
For B4, the affinity in assay [1], expressed as Kd, was 0.688 nM.

B5: Humanised 10G8 H0 + L1 IGKV1_5 (antibody, V domains shown)
VH: EVQLVESGGGLVQPGGSLRLSCAASGFTFSNYAMSWVRQAPGKGLEWVATISDGGSFTYYLDNVRGRFTISRDNAKNSLYLQMNSLRAEDTAVYYCARDVGHTTFWYFDVWGRGTLVTVSS
VL: DIVMTQSPDSLAVSLGERATINCRASKSVSAAGYNFMHWYQQKPGQPPKVLIYKASSLESGVPDRFSGSGSGTDFTLTISSLQAEDVAVYYCLHSREFPFTFGGGTKVEIK
notes: built from the stated exchange of CDRL2; residue limits derived by me; Human gamma 1/kappa constant regions
In assay [2], B5 showed a Kd of 9.33 nM, a koff of 0.00064 s⁻¹ and a kon of 68700 M⁻¹ s⁻¹. Moreover, in assay [3], the equilibrium dissociation constant (Kd) turned out to be 8.26 nM, the off-rate (koff) worked out at 0.000557 s⁻¹ and the kon is 67500 M⁻¹ s⁻¹.

B6: Pos 101 Gly (antibody, V domains shown)
VH: EVQLVESGGGLVQPGGSLRLSCAASGFTFSSYAMSWVRQAPGKGLEWVATISDGGSFTYYLDNVRGRFTISRDNAKNSLYLQMNSLRAEDTAVYYCARDVGHTTFWYFGVWGRGTLVTVSS
VL: DIVMTQSPDSLAVSLGERATINCRASKSVSAAGYNFMHWYQQKPGQPPKVLIYYASNLESGVPDRFSGSGSGTDFTLTISSLQAEDVAVYYCLHSREFPFTFGGGTKVEIKR
notes: also called CDRH3 D101>G
For B6, in assay [1], the Kd turned out to be 0.71 nM.

B7: Pos 102 Phe (antibody, V domains shown)
VH: EVQLVESGGGLVQPGGSLRLSCAASGFTFSSYAMSWVRQAPGKGLEWVATISDGGSFTYYLDNVRGRFTISRDNAKNSLYLQMNSLRAEDTAVYYCARDVGHTTFWYFDFWGRGTLVTVSS
VL: DIVMTQSPDSLAVSLGERATINCRASKSVSAAGYNFMHWYQQKPGQPPKVLIYYASNLESGVPDRFSGSGSGTDFTLTISSLQAEDVAVYYCLHSREFPFTFGGGTKVEIKR
notes: also called CDRH3 V102>F
B7 registered a Kd in assay [1] of 0.425 nM.

B8: Pos 102 Leu (antibody, V domains shown)
VH: EVQLVESGGGLVQPGGSLRLSCAASGFTFSSYAMSWVRQAPGKGLEWVATISDGGSFTYYLDNVRGRFTISRDNAKNSLYLQMNSLRAEDTAVYYCARDVGHTTFWYFDLWGRGTLVTVSS
VL: DIVMTQSPDSLAVSLGERATINCRASKSVSAAGYNFMHWYQQKPGQPPKVLIYYASNLESGVPDRFSGSGSGTDFTLTISSLQAEDVAVYYCLHSREFPFTFGGGTKVEIKR
notes: also called CDRH3 V102>L
B8 came in with a Kd in assay [1] of 0.426 nM.

B9: Pos 101 Glu (antibody, V domains shown)
VH: EVQLVESGGGLVQPGGSLRLSCAASGFTFSSYAMSWVRQAPGKGLEWVATISDGGSFTYYLDNVRGRFTISRDNAKNSLYLQMNSLRAEDTAVYYCARDVGHTTFWYFEVWGRGTLVTVSS
VL: DIVMTQSPDSLAVSLGERATINCRASKSVSAAGYNFMHWYQQKPGQPPKVLIYYASNLESGVPDRFSGSGSGTDFTLTISSLQAEDVAVYYCLHSREFPFTFGGGTKVEIKR
notes: also called CDRH3 D101>E
B9 displayed a Kd in assay [1] of 0.426 nM.

B10: Pos 100D Asp (antibody, V domains shown)
VH: EVQLVESGGGLVQPGGSLRLSCAASGFTFSSYAMSWVRQAPGKGLEWVATISDGGSFTYYLDNVRGRFTISRDNAKNSLYLQMNSLRAEDTAVYYCARDVGHTTFWYDDVWGRGTLVTVSS
VL: DIVMTQSPDSLAVSLGERATINCRASKSVSAAGYNFMHWYQQKPGQPPKVLIYYASNLESGVPDRFSGSGSGTDFTLTISSLQAEDVAVYYCLHSREFPFTFGGGTKVEIKR
notes: also called CDRH3 F100D>D
Regarding B10, the Kd in assay [1] came out at 0.672 nM.

B11: Pos 102 Pro (antibody, V domains shown)
VH: EVQLVESGGGLVQPGGSLRLSCAASGFTFSSYAMSWVRQAPGKGLEWVATISDGGSFTYYLDNVRGRFTISRDNAKNSLYLQMNSLRAEDTAVYYCARDVGHTTFWYFDPWGRGTLVTVSS
VL: DIVMTQSPDSLAVSLGERATINCRASKSVSAAGYNFMHWYQQKPGQPPKVLIYYASNLESGVPDRFSGSGSGTDFTLTISSLQAEDVAVYYCLHSREFPFTFGGGTKVEIKR
notes: also called CDRH3 V102>P
With B11, in assay [1], the Kd turned out to be 0.411 nM.

B12: Pos 102 Gln (antibody, V domains shown)
VH: EVQLVESGGGLVQPGGSLRLSCAASGFTFSSYAMSWVRQAPGKGLEWVATISDGGSFTYYLDNVRGRFTISRDNAKNSLYLQMNSLRAEDTAVYYCARDVGHTTFWYFDQWGRGTLVTVSS
VL: DIVMTQSPDSLAVSLGERATINCRASKSVSAAGYNFMHWYQQKPGQPPKVLIYYASNLESGVPDRFSGSGSGTDFTLTISSLQAEDVAVYYCLHSREFPFTFGGGTKVEIKR
notes: also called CDRH3 V102>Q
Take B12: the Kd in assay [1] worked out at 0.337 nM.

B13: Humanised 10G8 H0 IGHV3_7 + L1 (antibody, V domains shown)
VH: EVQLVESGGGLVQPGGSLRLSCAASGFTFSSYWMSWVRQAPGKGLEWVATISDGGSFTYYLDNVRGRFTISRDNAKNSLYLQMNSLRAEDTAVYYCARDVGHTTFWYFDVWGRGTLVTVSS
VL: DIVMTQSPDSLAVSLGERATINCRASKSVSAAGYNFMHWYQQKPGQPPKVLIYYASNLESGVPDRFSGSGSGTDFTLTISSLQAEDVAVYYCLHSREFPFTFGGGTKVEIK
notes: built from the statement that the germline CDRH1 was exchanged for the mouse CDRH1 in H0; Human gamma 1/kappa constant regions
Take B13: in assay [2], the Kd came to 10.6 nM, the koff is 0.000967 s⁻¹ and the kon was 91000 M⁻¹ s⁻¹. In assay [3], this molecule displayed a Kd of 24.2 nM, a koff of 0.815 s⁻¹ and a kon of 3.37e+07 M⁻¹ s⁻¹.

B14: Pos 102 Ala (antibody, V domains shown)
VH: EVQLVESGGGLVQPGGSLRLSCAASGFTFSSYAMSWVRQAPGKGLEWVATISDGGSFTYYLDNVRGRFTISRDNAKNSLYLQMNSLRAEDTAVYYCARDVGHTTFWYFDAWGRGTLVTVSS
VL: DIVMTQSPDSLAVSLGERATINCRASKSVSAAGYNFMHWYQQKPGQPPKVLIYYASNLESGVPDRFSGSGSGTDFTLTISSLQAEDVAVYYCLHSREFPFTFGGGTKVEIKR
notes: also called CDRH3 V102>A
In assay [1], B14 showed a Kd of 0.338 nM.

B15: Pos 100D Gly (antibody, V domains shown)
VH: EVQLVESGGGLVQPGGSLRLSCAASGFTFSSYAMSWVRQAPGKGLEWVATISDGGSFTYYLDNVRGRFTISRDNAKNSLYLQMNSLRAEDTAVYYCARDVGHTTFWYGDVWGRGTLVTVSS
VL: DIVMTQSPDSLAVSLGERATINCRASKSVSAAGYNFMHWYQQKPGQPPKVLIYYASNLESGVPDRFSGSGSGTDFTLTISSLQAEDVAVYYCLHSREFPFTFGGGTKVEIKR
notes: also called CDRH3 F100D>G
As for B15, in assay [1], the Kd was 0.661 nM.
